These results are taken from US20260028422A1 (CONCEPT TO MEDICINE BIOTECH, published 2026).

Where two headings read alike, the source gives them in different places.

Test [1] has as its target T1, human MerTK expressed on cells (human, UniProt Q12866 21-999).
T1 construct: whole, on cells; also called CHO-K1-hMerTK; CHO-K1-MerTK
T1 sequence (looked up): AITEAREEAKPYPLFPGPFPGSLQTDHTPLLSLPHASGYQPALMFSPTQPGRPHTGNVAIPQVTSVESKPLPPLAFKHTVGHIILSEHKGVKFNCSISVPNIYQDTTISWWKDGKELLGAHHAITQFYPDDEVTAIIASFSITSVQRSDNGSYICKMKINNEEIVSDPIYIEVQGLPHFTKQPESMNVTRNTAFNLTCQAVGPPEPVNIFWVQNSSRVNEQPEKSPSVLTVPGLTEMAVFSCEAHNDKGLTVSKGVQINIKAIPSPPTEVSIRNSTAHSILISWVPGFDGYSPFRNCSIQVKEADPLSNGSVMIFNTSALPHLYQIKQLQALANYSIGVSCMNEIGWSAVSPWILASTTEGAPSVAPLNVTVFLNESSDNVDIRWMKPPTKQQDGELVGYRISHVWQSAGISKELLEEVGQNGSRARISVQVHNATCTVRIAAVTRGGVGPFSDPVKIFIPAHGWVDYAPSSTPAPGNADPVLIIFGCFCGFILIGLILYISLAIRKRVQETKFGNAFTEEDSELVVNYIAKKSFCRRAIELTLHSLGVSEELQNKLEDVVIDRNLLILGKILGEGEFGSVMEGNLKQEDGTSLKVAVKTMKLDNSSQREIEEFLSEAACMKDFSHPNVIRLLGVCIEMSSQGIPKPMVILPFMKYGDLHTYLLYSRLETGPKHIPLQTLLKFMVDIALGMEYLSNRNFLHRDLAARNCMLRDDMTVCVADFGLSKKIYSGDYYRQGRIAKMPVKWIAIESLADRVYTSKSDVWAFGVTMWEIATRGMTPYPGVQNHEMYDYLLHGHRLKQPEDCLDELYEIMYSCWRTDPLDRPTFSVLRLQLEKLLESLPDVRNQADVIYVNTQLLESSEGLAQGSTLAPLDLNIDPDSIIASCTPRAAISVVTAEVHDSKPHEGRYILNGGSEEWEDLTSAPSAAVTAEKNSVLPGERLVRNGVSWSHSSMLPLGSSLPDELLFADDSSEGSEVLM
The experiment in a line: FACS on CHO-K1 cells overexpressing human MerTK, MFI (PE). The protocol:
(§1) To evaluate the binding property to the antigen expressed on the cells, the chimeric monoclonal antibodies were analyzed for their binding to human MerTK overexpressed on CHO-K1 cells by FACS. Briefly, human MerTK overexpressing CHO-K1 (CHO-K1-MerTK) cells were firstly incubated with 5-fold serially diluted mAbs starting at 20 nM at 4° C. for 1 hour. After washing with FACS buffer, the PE conjugated anti-human IgG-Fc secondary antibody was added to each well and incubated at 4° C., for 30 mins. The mean fluorescence intensity (MFI) of PE were evaluated by QuantAnalyzer 16.

Test [2] concerns the target T2, Human MerTK-mouse Fc fusion protein (human, UniProt Q12866 21-499, limits assumed).
T2 construct: also called hMerTK; Human MerTK-mouse Fe fusion protein
T2 sequence (looked up): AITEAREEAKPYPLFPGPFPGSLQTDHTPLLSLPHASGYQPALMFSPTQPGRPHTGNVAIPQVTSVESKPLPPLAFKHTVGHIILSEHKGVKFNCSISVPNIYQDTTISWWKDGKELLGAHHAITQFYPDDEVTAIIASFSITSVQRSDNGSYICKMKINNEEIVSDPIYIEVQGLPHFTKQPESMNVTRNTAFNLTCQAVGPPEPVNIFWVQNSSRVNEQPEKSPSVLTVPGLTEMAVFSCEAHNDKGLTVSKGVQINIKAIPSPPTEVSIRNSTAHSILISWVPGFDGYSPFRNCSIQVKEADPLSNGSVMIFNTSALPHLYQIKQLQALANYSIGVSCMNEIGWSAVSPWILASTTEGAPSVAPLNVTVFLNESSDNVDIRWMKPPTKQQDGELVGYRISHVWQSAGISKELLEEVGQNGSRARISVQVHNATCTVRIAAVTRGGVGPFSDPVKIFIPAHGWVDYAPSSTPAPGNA
Kind of test: FACS blocking: binding of human MerTK-mouse Fc to Jurkat cells overexpressing human Gas6, MFI (AF488). The method, then: To evaluate the blocking effects of anti-hMerTK mAbs on hMerTK binding to its ligand hGas6, a receptor blocking assay was set-up. Briefly, Jurkat cells engineered to overexpress human Gas6 were added to the 96-well microplates at a density of 5×10⁴ cells per well. Human MerTK-mouse Fe fusion protein (50 μL/well, […]) and the MerTK chimeric antibodies with a 3-fold serial dilution starting from 120 nM at a volume of 50 μL were added to the 96-well plates and incubated at 4° C. for 30 mins. After washing with FACS buffer, the plates were incubated with diluted Alex Fluor 488 conjugated goat anti-mouse IgG antibody for 30 mins at 4′C. After washing, the plates were analyzed by QuantAnalyzer 16.

Test [3] concerns the target T1, human MerTK expressed on cells. Kind of test: FACS on CHO-K1 cells overexpressing human MerTK, MFI (PE). The method, then: as §1
The source holds these as a separate data set.

For test [4], the target named is T3, human MerTK-his protein (human, UniProt Q12866 21-505).
T3 construct: extracellular domain; also called hMerTK-His; human MerTK protein
T3 sequence (looked up): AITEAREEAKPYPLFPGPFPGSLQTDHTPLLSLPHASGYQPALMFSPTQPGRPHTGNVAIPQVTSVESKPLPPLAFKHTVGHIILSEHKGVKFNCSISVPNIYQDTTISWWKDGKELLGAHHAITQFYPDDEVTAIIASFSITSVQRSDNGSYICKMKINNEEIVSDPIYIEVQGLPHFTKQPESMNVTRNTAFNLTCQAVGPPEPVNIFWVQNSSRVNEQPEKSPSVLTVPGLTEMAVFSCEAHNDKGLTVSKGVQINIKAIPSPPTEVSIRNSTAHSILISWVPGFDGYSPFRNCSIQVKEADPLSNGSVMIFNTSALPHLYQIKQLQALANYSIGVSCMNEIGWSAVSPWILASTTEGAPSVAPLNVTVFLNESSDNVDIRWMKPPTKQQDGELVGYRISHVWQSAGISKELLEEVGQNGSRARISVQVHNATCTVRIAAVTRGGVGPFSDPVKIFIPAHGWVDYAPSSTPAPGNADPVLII
The experiment in a line: SPR Biacore T200, antibody captured on Protein A chip. The method, then: The binding affinity of the MerTK chimeric antibodies to human MerTK-his protein was tested with Biacroe™ T200 using a capture method. Briefly, the antibodies were captured with a Pro-A chip. […] The antigen was allowed to dissociate for 420-800 s. Data analysis was carried out using Biacore™ T200 evaluation software.
A general note: SPR reads the build-up and loss of mass on a sensor chip optically.

B1: h13B4.v16 benchmark antibody (antibody, V domains shown)
VH: EVQLVESGEGLVQPGGSLRLSCAASGFSLSSYAMGWVRQAPGKGLEYVGIINSYGNTYYANWAKGRFTISRDNSKNTVYLQMGSLRAEDMAVYYCARDPGVSSNLWGRGTLVTVSS
VL: DIQMTQSPSTLSASVGDRVTITCQASQNIYSGLAWYQQKPGKAPKLLIYGASKLASGVPSRFSGSGSGTEFTLTISSLQPDDFATYYCQATYYSSNSVAFGGGTKVEIK
As a reminder, the EC50 is the concentration that produces a half-maximal response. A lower EC50 goes with higher potency in that assay. As a reminder, the IC50 is the concentration that inhibits the measured activity by half. A lower IC50 goes with higher potency. Take B1: the concentration for a half-maximal effect (EC50) in test [1] worked out at 0.17 nM; in test [3], 0.16 nM. Further, the results for the Top in test [1] and in test [3] were 5920 MFI (PE) and 4950 MFI (PE), respectively. The molecule also displayed an IC50 in test [2] of 0.856 nM.

B2: 252C12B10 chimeric monoclonal antibody (antibody, V domains shown)
VH: QVQLQQPGTELVKPGASVKLSCKTSGYTFTSYWMHWMKQRPGQGLEWLGHINPSTGGSNYNEKFKSKATLTVDKSSNTAYMQLSSLTSEDSAVYYCARPRGFYGYSYWYFDVWGSGTTVTVSS
VL: DIQMTQTTSSLSASLGDRVTISCSASQDINNYLNWYQHKPDGTIKVLIYFTSSLHSGVPSRFSGSGSGTEYSLTISNLEPEDIATYYCQQYSKLPPTFGSGTKLEIK
What is called Kd is a measure of binding affinity in units of concentration. Read a low Kd as tighter binding. For orientation: koff means the rate constant with which the complex falls apart. The kon is the rate constant with which the complex forms. A lower kon goes with slow association. In the case of B2, in test [1], it took 0.063 nM to reach a half-maximal effect (EC50) and the Top is 6040 MFI (PE). Moreover, the concentration for half-maximal inhibition (IC50) in test [2] worked out at 0.78 nM. In addition, in test [4], the Kd was found to be 5.33 nM, the koff turned out to be 0.00103 s⁻¹ and the kon worked out at 193000 M⁻¹ s⁻¹.

B3: 252H9D5 chimeric monoclonal antibody (antibody, V domains shown)
VH: QVTLRESGPGILQPSQTLSLTCSFSGFSLNTFGMGVGWIRQSSGKGLKWLAHIWWDDDKFYNPALKSRLTISKDTSKNQVFLKIANVDTTDTATYYCARIEGGLPYYYDYWGQGTPLIVSS
VL: DIVMTQSQKIMSTSVGDRISVTCKASQIVGTNVVWYQQKPGQSPKALIYSTSYRYSGVPDRFTGSRSGTDFTLTISNVQSEDLANYFCQQYNSYPFTFGSGTKLEIK
With B3, in test [1], it took 0.12 nM to reach a half-maximal effect (EC50) and the Top is 7290 MFI (PE). The same molecule displayed a half-inhibitory concentration (IC50) in test [2] of 0.824 nM. Moreover, in test [4], binding was characterised by a dissociation constant (Kd) of 9.85 nM, the dissociation rate constant (koff) was 0.00287 s⁻¹ and the kon is 292000 M⁻¹ s⁻¹.
